Test results published in patent US20250313631A1.

Tests used:
[1] = molecular target: recombinant rat VISTA (His-tagged) (rat); assay: ELISA, plate coated with rat VISTA
[2] = molecular target: recombinant cynomolgus macaque VISTA (His-tagged) (cynomolgus macaque); assay: ELISA, plate coated with cyno VISTA
[3] = molecular target: recombinant human VISTA (His-tagged) (human) (UniProt Q9H7M9); assay: ELISA, plate coated with human VISTA
[4] = molecular target: recombinant mouse VISTA (His-tagged) (mouse) (UniProt Q9D659); assay: ELISA, plate coated with mouse VISTA
Sequence of recombinant mouse VISTA (His-tagged) (mouse) (Q9D659 33-191 limits assumed): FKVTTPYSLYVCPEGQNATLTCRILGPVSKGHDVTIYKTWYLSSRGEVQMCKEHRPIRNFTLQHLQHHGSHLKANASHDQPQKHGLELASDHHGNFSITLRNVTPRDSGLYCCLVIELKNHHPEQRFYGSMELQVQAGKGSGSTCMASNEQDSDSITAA

[5] = molecular target: recombinant human VISTA (His-tagged) (human) (UniProt Q9H7M9); assay: ELISA, plate coated with human VISTA; unit nM from the legend paragraph 697
[6] = molecular target: recombinant mouse VISTA (His-tagged) (mouse) (UniProt Q9D659); assay: ELISA, plate coated with mouse VISTA; unit nM from the legend paragraph 697
[7] = molecular target: recombinant human VISTA (His-tagged) (human) (UniProt Q9H7M9); assay: ELISA, plate coated with human VISTA; unit nM from the legend paragraph 698
[8] = molecular target: recombinant mouse VISTA (His-tagged) (mouse) (UniProt Q9D659); assay: ELISA, plate coated with mouse VISTA; unit nM from the legend paragraph 698
[9] = molecular target: recombinant human VISTA (His-tagged) (human) (UniProt Q9H7M9); assay: ELISA, plate coated with human VISTA; unit nM from the legend paragraph 699
[10] = molecular target: recombinant mouse VISTA (His-tagged) (mouse) (UniProt Q9D659); assay: ELISA, plate coated with mouse VISTA; unit nM from the legend paragraph 699
[11] = molecular target: human VISTA expressed on cells (human) (UniProt Q9H7M9); assay: flow cytometry, FITC-A; HEK293 VISTA O/E cells (unstained cells: MFI 0.12)
[12] = molecular target: human FcγRIII (CD16a) (human) (UniProt P08637); assay: ELISA, plate coated with human CD16a (FcγRIII), detection with HRP anti-human Fc antibody
Sequence of human FcγRIII (CD16a) (human) (P08637 17-208 limits assumed): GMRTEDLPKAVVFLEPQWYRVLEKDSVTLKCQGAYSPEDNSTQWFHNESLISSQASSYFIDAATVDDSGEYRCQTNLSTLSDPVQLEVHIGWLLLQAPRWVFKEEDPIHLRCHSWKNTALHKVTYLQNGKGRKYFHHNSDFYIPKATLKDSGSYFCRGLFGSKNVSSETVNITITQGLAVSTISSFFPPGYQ

Fc-tagged VSIG-3 = Fc-tagged VSIG-3 (UniProt Q5DX21); assay: BLI, 100 nM Fc-tagged VSIG-3 on anti-human Fc biosensor, VISTA as analyte from 3000 nM

## Human isotype (antibody)
[1]
  EC50: > 33 nM
[2]
  EC50: > 33 nM
[3]
  EC50: > 33 nM
[4]
  EC50: > 33 nM
[5]
  EC50: 152 nM
[6]
  EC50: 77 nM
[7]
  EC50: > 200 nM
[8]
  EC50: > 200 nM
[9]
  EC50: 98.5 nM
[10]
  EC50: > 200 nM

## Isotype (antibody)
[11]
  MFI: 0.06

## hIgG1 Isotype Control (antibody)
[12]
  EC50 (read off the curve): 1 nM

## recombinant human VISTA (His-tagged) (from UniProt Q9H7M9 33-194) (receptor)
Fc-tagged VSIG-3
  Kd: 5280 nM
